Article doi:10.64898/2025.12.14.694184 (bioRxiv, 2025)

B1: mouse CLCC1 N-terminal domain dimer (CLCC1-NTD-6×His) (domain or fragment, UniProt Q99LI2 19-184, looked up)
chain: HDDDWIDPTDMLNYDAASGTMRKSQVRSGTSEKKEVSPDSSEAEELSDCLHRLDSLTHKVDSCEKKKMKDYESQSNPVFRRYLNKILIEAGKLGLPDENKVEMRYDAEILLSRQTLLEIQKFLSGEEWKPGALDDALSDILINFKCHDSEAWKWQFEDYFGVDPYN
modifications: inter-molecular disulfide bonds in the dimer
B2: human TorsinA-StrepTagII-FLAG-StrepTagII (enzyme, UniProt O14656 21-332, looked up)
chain: VEPISLGLALAGVLTGYIYPRLYCLFAECCGQKRSLSREALQKDLDDNLFGQHLAKKIILNAVFGFINNPKPKKPLTLSLHGWTGTGKNFVSKIIAENIYEGGLNSDYVHLFVATLHFPHASNITLYKDQLQLWIRGNVSACARSIFIFDEMDKMHAGLIDAIKPFLDYYDLVDGVSYQKAMFIFLSNAGAERITDVALDFWRSGKQREDIKLKDIEHALSVSVFNNKNSGFWHSSLIDRNLIDYFVPFLPLEYKHLKMCIRVEMQSRGYEIDEDIVSRVAEEMTFFPKEERVFSDKGCKTVFTKLDYYYDD

Legend:
[1] = target: B2; assay: pull-down
non-reducing SDS-PAGE = target: the molecule itself; assay: non-reducing SDS-PAGE
native gel or EMSA = target: the molecule itself; assay: native gel or EMSA

Row | Binder | binding result [1] | stoichiometry N (non-reducing SDS-PAGE) | binding result (native gel or EMSA)
1 | B1 | binds | 2 | –
2 | B2 | – | – | binds
